What is called Kd is the equilibrium constant for the complex coming apart. For orientation: EC50 means the concentration giving half of the maximal effect.

The target in test [1] is T1, gHgL胞外域全长蛋白 (recombinant single-chain EBV gL-linker-gH ectodomain with 6xHis, SEQ ID NO.12) (Epstein-Barr virus, M81 strain …).
T1 construct: not shown: 6xHis tag
The test can be described thus: SPR, Biacore 8K, antibody captured on Protein A chip, gHgL as analyte 3.125-200 nM. On the technique in general: Surface plasmon resonance follows binding to a sensor surface in real time, without labels.

For test [2], the target named is T2, P9肽 (biotinylated 20-mer peptide of gL, aa 104-123) (Epstein-Barr virus, M81 strain, N-terminal biotin).
T2 peptide: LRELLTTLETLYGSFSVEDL
The test can be described thus: ELISA, biotinylated peptide on streptavidin plate, antibody 1 ug/mL. For orientation: An ELISA detects its analyte on a solid surface through an enzyme-linked reagent.

Test [3] concerns the target T1, gHgL胞外域全长蛋白 (recombinant single-chain …). The test can be described thus: ELISA, gHgL protein coated at 2 ug/mL, antibody titrated.

B1: 兔源单克隆抗体10E4 (rabbit monoclonal antibody 10E4) (antibody, V domains shown)
VH: QQVKESGGRLVTPGTPLTLTCTASGFSLSTYWMSWVRQAPGKGLEYIGVIGGSGSTYYASWAKGRFTISKTSTTVDLKITSPTTEDTATYFCARDSGAGVRFRFWGPGTLVTVSS
VL: DLVMTQTPASVEAGVGGTVTINCQASENIGSRLAWYQQKPGQPPKLLIYRASTLESGVPSRFKGSGSGTEFTLTISDLECADAATYYCQCTYGVSITINYGNDFGGGTEVVVKG
notes: also called 单抗10E4
On to B1, for which the Kd in test [1] was 3.53 nM. The binding result in test [2] is on record as “binds”. The concentration for a half-maximal effect (EC50) in test [3] was 0.0335 µg/mL.
